{
  "source": "patent US11523990B2",
  "about": "“Non-covalent, self-organzing hydrogel matrix for biotechnological applications” (DENOVOMATRIX GMBH, priority 2012, dated 2022)",
  "format_in_all_cases": "physicochemical",
  "key": {"[1]": {"assay": "Hydrogel formation in different solvents", "settings": "5 mM conjugate + 5 mM 14-kDa-heparin", "experimental": "Three respective different cases were tested in the hydrogel-formation stability test. […] The hydrogels were formed by mixing the final concentrations of respectively 5 mM peptide-starPEG-conjugate and 5 mM 14-kDa-heparin in 50 μl physiological phosphate buffer solution (1×PBS), Milli-Q-water or cell culture medium with 2% fetal bovine serum (FBS). The stability of the hydrogels was tested with the same solvent in which it was formed in 200 μl supernatant. The hydrogels were incubated at room temperature (24° C.), the supernatants were changed every day for at least three days in a row and the result after at least 3 days analyzed."}, "[2]": {"assay": "High-throughput centrifuge analysis of mechanical properties of the hydrogels (surface deformation, metal bead penetration)", "settings": "5 mM peptide-starPEG + 5 mM 14-kDa-heparin", "experimental": "ATIII is a heparin-binding peptide known from the literature. All peptides are connected to a four-armed, maleimide functionalized 10-kDa-polyethylene glycol (starPEG). The hydrogel formation was tested in a 50 μI mixture, which contains 5 mM 14-kDa-heparin and 5 mM (2.5 mM) peptide-starPEG conjugate in phosphate buffer solution (1×PBS, pH 7.4). The deformation and penetration speed was analyzed through centrifuging the hydrogel in a 45° table centrifuge with 275 μm metal beads added to the surface. The deformation of the surface and the penetration of the metal beads were monitored in dependence on the applied force.\nA comparative high-throughput analysis was performed regarding the mechanical properties of the hydrogels. In order to provide a fast high-throughput method for comparing small amounts of hydrogel, a tabletop centrifuge (5424R, Eppendorf, Hamburg, Germany) was used. For this purpose, 50 μl of the hydrogel were formed by mixing the peptide-starPEG-conjugates and 14-kDa-heparin in phosphate buffer (1×PBS, pH 7.4) to a final concentration of 5 mM (once 2.5 mM for KA7-starPEG). The mixture was incubated in 0.2 ml reaction vessels overnight. The deformation of the hydrogel surface was determined in reference to the 45° centrifuge rotor and the penetration of 275 μm metal beads in dependence on the force that has to be produced by the centrifuge. All experiments were repeated three times.\nHereby FIGS. 5A and B show a deformation of the surface of the 50 μl hydrogel in a 0.2 ml reaction tube, more specifically FIG. 5A below the speed required for deforming the surface, and FIG. 5B at the speed required for deforming the surface. FIG. 5C is a schematic representation of the penetration of a small spheres through 50 μl hydrogel in a 0.2 ml reaction tube depending on the force exerted by the 45° centrifuge.\nThe hydrogels were formed by mixing peptide-starPEG-conjugate and 14-kDa-heparin at 5 mM final concentration in 50 μl phosphate buffer (1×PBS). The analysis was performed by centrifuging the hydrogels in a 45° tabletop centrifuge with 275 μm metal beads on the gel surface. The deformation of the surface and the penetration of the spheres were recorded in dependence on the exerted force."}, "[3]": {"assay": "Stability of formed hydrogels against different solvents", "settings": "24° C., at least three days", "experimental": "In order to test the strength of the interaction between the peptide motif and the 14-kDa-heparin the formed hydrogels were tested with regard to different solvents. […] For this the peptide-starPEG-conjugates were mixed with 14 kDa-heparin in 50 μl in physiological phosphate buffer solution (1×PBS) to a final concentration of respectively 5 mM. Each solvent, i.e., physiological phosphate buffer solution (1×PBS), Milli-0-water, 1 M hydrochloric acid (HCl) 1 M sodium hydroxide solution (NaOH), saturated sodium chloride solution (NaCl), dimethyl sulfoxide (DMSO), ethanol and cell culture medium with 2% fetal bovine serum (FBS) were respectively added as 200 μl supernatant to the hydrogel. The hydrogel was incubated at a room temperature of 24° C. and the supernatants where exchanged every day for at least three days. All experiments were performed three times. Under none of the tested conditions the KA7-hydrogel could be destroyed. […] 2,2,2-trifuourethanlol (TFE) is known to destroy any type of secondary structures."}, "[4]": {"assay": "Erosion experiment with TAMRA-marked 14-kDa-heparin", "settings": "5 mM conjugate + 5 mM TAMRA-heparin, cell culture medium with 2% FBS, 37° C.", "experimental": "Further, an erosion experiment was conducted. For this purpose peptide-starPEG-conjugates were respectively mixed with TAMRA-marked 14-kDa-heparin. For the erosion experiment the TAMRA-marked 14-kDa-heparin had to be synthesized beforehand. Hereby 14-kDa-heparin was marked with 5-(and-6)-carboxytetramethylrhodamin (TAMRA, Invitrogen) by using the 1-ethyl-3-(3-dimethylaminopropyl)carbodiimide/N-hydroxysulfosuccinimide-(EDAC/sNHS)-chemistry. Heparin, TAMRA, EDAC, sNHS and Na2CO3 were mixed at a ratio of 1:2:5:4:20 in water and incubated overnight. Thereafter the mixture was dialyzed for two days against 10 liters of water in a dialysis membrane with an exclusion limit of 8 kDa with constant exchange of water. The dialyzed product was filtered through a 0.22 μm polyvinylidene fluoride filter (PVDF-filter) and freeze-dried to a red product.\nSubsequently the peptide-starPEG-conjugates were respectively mixed with the TAMRA-labelled 14-kDa-heaprin in 50 μl cell culture medium to a final concentration of 5 mM. […] The fluorescence was measured at defined time points in the supernatant by using a plate reading device (BECKMAN COULTER […] Detection platform, BECKAMN COULTER, Brea, Calif., USA) and black 96-well-plates with clear bottom.\nBoth peptides shoed without heparin a random coiled structure in Milli-Q-water. […] The fluorescence was measured in 200 μl of 1 ml supernatant. […]"}},
  "note": "“Also recorded” adds a separate entry of the source.",
  "data": [
    {"sequence": "CWGGKAKAKAKAKA [KA5]", "values": [
      {"measurement": "Hydrogel formation in solvent", "setting": "[1]; Cell culture medium with 2% FBS", "result": "formed"},
      {"measurement": "Hydrogel formation in solvent", "setting": "[1]; PBS, 50 μl, result after at least 3 days", "result": "formed"},
      {"measurement": "Hydrogel formation in solvent", "setting": "[1]; water (Milli-Q)", "result": "Formed"},
      {"measurement": "Deformation speed", "setting": "[2]; 50 μl 1×PBS, 45° centrifuge", "result": "11223 +/- 4768 m/s^2"},
      {"measurement": "Penetration speed", "setting": "[2]; 275 μm metal beads", "result": "21209 +/- 2188 m/s^2"},
      {"measurement": "Stability of hydrogel against supernatant", "setting": "[3]; supernatant 1M HCl", "result": "only destroyed by 1 M HCl after more than one week incubation; also recorded: Stable; hydrogel was"},
      {"measurement": "Stability of hydrogel against supernatant", "setting": "[3]; supernatant 1M NaOH", "result": "Stable"},
      {"measurement": "Stability of hydrogel against supernatant", "setting": "[3]; supernatant 1xPBS, 5 mM conjugate + 5 mM heparin gel", "result": "Stable"},
      {"measurement": "Stability of hydrogel against supernatant", "setting": "[3]; supernatant Cell culture medium with 2% FBS", "result": "Stable"},
      {"measurement": "Stability of hydrogel against supernatant", "setting": "[3]; supernatant DMSO", "result": "Stable"},
      {"measurement": "Stability of hydrogel against supernatant", "setting": "[3]; supernatant Ethanol", "result": "Stable"},
      {"measurement": "Stability of hydrogel against supernatant", "setting": "[3]; supernatant Saturated NaCl solution", "result": "Stable"},
      {"measurement": "Stability of hydrogel against supernatant", "setting": "[3]; supernatant Water", "result": "Stable"},
      {"measurement": "Heparin released from the hydrogel (erosion)", "setting": "[4]", "result": "more erosion"}
    ]}
  ]
}
